# Laboratory results from publication PMC314469, “Protein Interaction Networks by Proteome Peptide Scanning” (PLoS Biology, 2004).
# T1: Myo5 SH3 (MYO5_YEAST), Q04439
# T1 chain: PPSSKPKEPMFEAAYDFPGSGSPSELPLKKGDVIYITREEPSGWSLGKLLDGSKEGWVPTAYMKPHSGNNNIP
# Target: T1, Myo5 SH3 (MYO5_YEAST), Q04439
# Assay: SPOT array
row,"normalised SPOT signal, Boehringer light units (BLU); mean over the file's lines of this peptide",Binder
1,455,LPFMYLLPRFPSHI [YGR065C 182-195]
2,178,LALLMTDPDAPSRT [YLR179C 73-86]
3,239,MFTYFQEPPFPDLL [YPL063W 167-180]
4,169,LLKGYIPPYKPIVK [YMR104C 608-621]
5,429,KWTIMPHPNRPNAA [YOL008W 138-151]
6,242,KWKSLFPPFFPSDI [YCL016C 283-296]
7,16500,KPPSYPSPVQPPQS [YBL085W 399-412]
8,413,KPMLHNVPHDPSLP [YDR231C 158-171]
9,253,LWILYMSPDVPSAS [YPL058C 1310-1323]
10,152,MANILYYPQKPLGT [YOR151C 792-805]
11,152,KPSLWEAPQNPPYS [YML035C 587-600]
12,414,LLISHLFPTNPEFS [YER155C 650-663]
13,2310,KPPVYRLPPLPRLK [YDL045W-A 4-17]
14,162,LLYLMTYPQQPMVK [YOR207C 724-737]
15,43400,LPAPPPPPRRGPA [YOR181W 341-353]
16,79.7,MEEPFIWPEEPRPD [YDR405W 164-177]
17,198,LLAEHNGPKLPHIP [YKR021W 416-429]
18,254,KPLNLSKPISPPPS [YJL157C 78-91]
19,143,LELLLSLPTGPESK [YBR172C 710-723]
20,125,LLQSLRLPTTPTER [YCL040W 391-404]
21,6470,LLLPLLLPPLPSVK [YKL147C 80-93]

row,"normalised SPOT signal, Boehringer light units (BLU); mean over the file's lines of this peptide",Binder
1,165,LPTGYYEPMKPSSL [YLL016W 406-419]
2,380,KPSVMKLPPSPKQP [YFR030W 871-884]
3,159,KPSGYYGPNSPLKL [YKL108W 199-212]
4,155,LAIRLSWPPAPVTL [YDL151C 103-116]
5,145,LPEELMRPKVPELL [YPL012W 957-970]
6,288,LASPFHDPILPRRT [YHL028W 522-535]
7,161,MASFLPVPEKPNLI [YNL206C 125-138]
8,223,MASGLLPPIQPGFD [YJR106W 230-243]
9,145,LFKRLPVPAPPMDS [YNL238W 106-119]
10,344,LLAKLPLPRDPRVA [YPR183W 188-201]
11,117000,LAKDLIVPRRPEWN [YGL099W 130-143]
12,103,LEFSHYAPTAPHVQ [YLR069C 734-747]
13,172,MAKSFADPRVPQPM [YPR112C 91-104]
14,268,MFELLSHPKVPVGM [YHR197W 602-615]
15,202,LPAVFSAPIRPDIV [YBR031W 22-35]
16,45.3,LPQQHLSPLIPIAI [YGL035C 132-145]
17,11900,KPPSYPSPAQPPKS [YER114C 444-457]
18,191,LEDALHVPTNPEIL [YDR416W 508-521]
19,115,LPTALLSPLRPSLS [YCL051W 199-212]
20,185,LWKPLVYPTSPSEH [YFR019W 1841-1854]
21,204,MFNLLQKPEQPHQN [YLR291C 121-134]
